Experimental findings from article doi:10.1101/190033 (bioRxiv, 2017) are described below.

Series [1] concerns the molecule itself. Kind of series: SEC.
The series “GEMMA” deals with the molecule itself. Kind of series: GEMMA.
The series “crystal structure” deals with the molecule itself. Kind of series: crystal structure.
Series [2] deals with the molecule itself. Briefly: SEC. This is another data set of the same source.

B1: Leeuwenhoekiella blandensis class I ribonucleotide reductase radical-generating subunit NrdBi (NrdB), wild type (enzyme, Leeuwenhoekiella blandensis MED217, UniProt A3XHF9 1-427, looked up)
chain: MSSQEIKKIIKRDYSTAPFVLEKITNAIANAMAALGHGSEQDAKLISMQVYESLLNNKEQESEYIPTVEQVQDMVEDKLMSSEFHDVAKAYIIYRNKRALERKTNIFEKRINLKPYEYPELNEYVAAIRHSYWIHTEFNFTSDIQDFKTGLSEVERSAIKNTMLAISQIEVAVKTFWGDVHHRLPKPEIAAVGATFAESEVRHHDAYSHLLEILGLNEEFKELKKKPVIMKRVHYLETSLKHAKSDDDREYTESILLFALFIEHVSLFSQFLIIMAFNKHKNMLKGISNAVEATSKEEQIHGDFGVDIINIIKKENPEWFDEEHNNLIKEMCLNSFEAESKVVDWIFEKGELDFLPKAVINEFLKNRFNKSLEAIGLEKLFDIDEALLQETEWFDDEIIGTKHGDFFVKRSINYSKRTQSITSDDLF
In the case of B1, the “stoichiometry N” value in “SEC [1]” amounted to 2; in “GEMMA”, 4.

B2: Leeuwenhoekiella blandensis NrdB, thrombin-cleaved (hexahistidine tag removed), used for crystallization (enzyme, Leeuwenhoekiella blandensis MED217)
chain: GSHMSSQEIKKIIKRDYSTAPFVLEKITNAIANAMAALGHGSEQDAKLISMQVYESLLNNKEQESEYIPTVEQVQDMVEDKLMSSEFHDVAKAYIIYRNKRALERKTNIFEKRINLKPYEYPELNEYVAAIRHSYWIHTEFNFTSDIQDFKTGLSEVERSAIKNTMLAISQIEVAVKTFWGDVHHRLPKPEIAAVGATFAESEVRHHDAYSHLLEILGLNEEFKELKKKPVIMKRVHYLETSLKHAKSDDDREYTESILLFALFIEHVSLFSQFLIIMAFNKHKNMLKGISNAVEATSKEEQIHGDFGVDIINIIKKENPEWFDEEHNNLIKEMCLNSFEAESKVVDWIFEKGELDFLPKAVINEFLKNRFNKSLEAIGLEKLFDIDEALLQETEWFDDEIIGTKHGDFFVKRSINYSKRTQSITSDDLF
As for B2, the “stoichiometry N” value in “crystal structure” stood at 4.

B3: Leeuwenhoekiella blandensis class I ribonucleotide reductase catalytic subunit NrdAi (NrdA) (enzyme, Leeuwenhoekiella blandensis MED217, UniProt A3XHF8 1-600, looked up)
chain: MRENTTKLENSTETNVQHTKDNDLLKARRDALQDATEKNTDEPSFDWLTEHSRSFLAAGYLSEGVSAEERIREIADRAEEILRMPGFSDKFYKYMGEGYFSLASPVWSNFGKKRGLPISCFGSHIDDDMGNILYTQSEVGMMSKLGGGTSGYFGKIRHRGAAVKNNGYASGAVHIMQLFDKMVDVVSQGSVRRGRFSPYLPISHPDIKEFLEIGTEGNSIQQLTHGVTVDSTWMQEMIDGDTDKREVWAKVLQRRGEMGYPYIFYTDNANNGKPDVYKDKGHDIYASNLCTEIMLPSSDEWSFVCVLSSINVLHYDKWKNTDAVETMVCFLDAVLTEFIDKLEEYRDSDNRDHRQTFMFMERAYNFAKSNRALGLGVLGWHSLLQSKRHAFDSQEAYDLNSEIFREIKQRSYKASEELAEKFGEPETLKGYGRRNATLNAIAPTTSSAFILGQVSQGIEPIWSNVYVKDIAKIKTTIKNPFLEELFEEKGMNTPEVWRSVRDNDGSVQHLEFLTEQEKDVFKTYAEIDQMAIIYQAANRQNHIDQGQSINLLVHPDMPIKEINKIHITAWKLGLKSLYYQHSMNAAQKFKQKKECVSCEA
With B3, the “stoichiometry N” value in the series “SEC [2]” came out at 2.
